From patent US20040072754A1, “Amyloid precursor protein and APP-deprived peptides inhibit tumor growth and metastasis” (priority 2000, published 2004)
No end group written: not given here.

Experiments:
[1] = system: hippocampal cell cultures; settings: Iversen et al., 1995; cited from earlier work
[2] = system: D122 tumor cells (Lewis lung carcinoma); experiment: Lewis lung carcinoma (D122) i.v. lung metastasis model with i.p. injected Aβ peptides; assay type: in vivo, C57/BL mice; settings: 20 μg/mouse/injection (Aβ96-110: 10 μg), 7 times during two weeks before and 7 times after D122 i.v. injection; examined after 21 days
Description: The intravenous (i.v.) model. […] D122 or B16 tumor cells were injected i.v. into Tg-APP, Tg-APP/SOD or parental mice and metastasis was evaluated after 30-37 days. In certain long-term experiments the evaluation was performed over a period of 120-140 days post injection of the tumor cells.
Aβ peptides in phosphate buffered saline (PBS) were injected i.p. into C57/BL mice 4-7 times (7-10 μg each time or 10-20 μg each time in other experiments) during two weeks preceding D122 or B16 tumor cells injection and seven times every second day following D122 or B16 tumor cells injection. Control mice were i.p. injected with PBS. Mice were sacrificed 20-21 days following injection of D122 or B16 tumor cells by injecting 20 mg/mouse Xylazine (i.p.) and lungs were weighed. Lungs were fixed, stained in Bouin's solution and metastases counted. For histology, lungs were fixed in buffered formalin and histological sections were prepared and stained with Hematoxylin-Eosin. Each experimental group included 7-12 animals, and experiments were repeated twice.
D122 tumor cells were injected i.v. to the tail of C57/BL mice. […] All together 77 μg of AP 1-42 were injected into each mouse. After 21 days tumor weight and number of metastases in the lungs were examined.
D122 tumor cells were injected intravenously to the tail of C57/BL mice. […]

Substance | toxicity to neuronal cells [1] | reduction of the number of metastases in the lungs [2] [%]
Aβ1-28: Aβ sequence fragment tested for neurotoxicity in the literature | non-toxic | 
Aβ1-38: Aβ sequence fragment tested for neurotoxicity in the literature | induced toxicity | 
Aβ1-40: Aβ sequence fragment tested for neurotoxicity in the literature | induced toxicity | 
Aβ25-35: Aβ sequence fragment tested for neurotoxicity in the literature (GSNKGAIIGLM; Amyloid-beta protein 42; UniProt P05067 696-706, looked up, fragment) | induced toxicity | 
NWCKRGRKQCKTHPH (cysteine pairing not given here) [Aβ96-10] |  | 9
